Laboratory results reported in publication PMC8882475.

Target: FcRn (UniProt P55899)
Assay: BLI

Substance: SI–F019, huACE2 (18–615) - IgG1 Fc null (from UniProt Q9BYF1-1 18-615) (Fc fusion)
- Kd: 37.6 nM
